Reference: patent US20180141975A1 (VIROGIN BIOTECH CANADA, published 2018)

Tests used:
mouse PD-L1 Fc = target: T1, mouse PD-L1 Fc (mouse, UniProt Q9EP73 19-238); test: competition ELISA, peptide at 3 and 10 uM against mouse PD-1 Fc on coated mouse PD-L1 Fc (FIG. 9A)
T1 construct: Plate-coated reagent; not shown: Fc part
Procedure: More specifically, mouse and human WT and TF peptides (3 and 10 μM) were mixed with recombinant mouse PD-1 Fc and bound to a mouse PD-L1 Fc coated 96-well Immuno Maxisorp flat bottom plate. Binding was detected via a biotinylated anti-mouse PD-1 antibody, streptavidin-horseradish peroxidase (HRP), and 3,3′, 5,5′ Tetramethylbenzidine (TMB) substrate. Absorbance measurements were collected at 450 nm via a plate reader. The increased percent (%) of mouse (and human) PD-1/PD L1 inhibition was compared to a control (no peptide) sample. […] The differences between the human and mouse peptides are illustrated in FIG. 9B.

[1] = target: T2, recombinant human PD-L1 Fc (human, UniProt Q9NZQ7 19-239); test: summary of the examples (competition ELISA, peptide array)
T2 construct: Recombinant reagent; not shown: Fc part

[2] = target: T2, recombinant human PD-L1 Fc; test: competition ELISA, peptides and combinations at 3 and 10 uM against human PD-1 Fc on coated human PD-L1 Fc (FIG. 5A)

T2 sequence (Q9NZQ7 19-239 limits assumed): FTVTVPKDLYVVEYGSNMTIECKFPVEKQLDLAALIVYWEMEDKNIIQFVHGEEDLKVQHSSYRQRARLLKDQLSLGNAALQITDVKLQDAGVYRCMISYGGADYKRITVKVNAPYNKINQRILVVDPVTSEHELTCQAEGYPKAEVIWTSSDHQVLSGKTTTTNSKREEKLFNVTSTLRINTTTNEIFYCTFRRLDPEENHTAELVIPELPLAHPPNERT
T1 sequence (Q9EP73 19-238 limits assumed): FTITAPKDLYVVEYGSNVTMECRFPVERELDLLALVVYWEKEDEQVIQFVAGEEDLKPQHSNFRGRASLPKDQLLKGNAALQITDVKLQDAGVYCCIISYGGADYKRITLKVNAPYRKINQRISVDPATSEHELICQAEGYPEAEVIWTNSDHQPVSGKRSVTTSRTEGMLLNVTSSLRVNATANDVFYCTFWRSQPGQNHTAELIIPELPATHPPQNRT

B1: Mouse WT peptide (SEQ ID NO:35, WNRLSPSNQT) (peptide)
peptide: WNRLSPSNQT
**Q.** Does B1 bind (mouse PD-L1 Fc)?
**A.** binds

B2: WT peptide (SEQ ID NO:1, WYRMSPSNQT) (peptide)
peptide: WYRMSPSNQT
notes: Chemically synthesized peptide found by a peptide array method; also called human WT peptide
**Q.** Does B2 bind [1]?
**A.** binds

B3: YT peptide (SEQ ID NO:28, YYRMSPSNQT) (peptide)
peptide: YYRMSPSNQT
notes: A derivative of the WT peptide (W1Y)
**Q.** Does B3 bind [2]?
**A.** binds

B4: ET peptide (SEQ ID NO:25, EYRMSPSNQT) (peptide)
peptide: EYRMSPSNQT
notes: A derivative of the WT peptide (W1E)
**Q.** Does B4 bind [2]?
**A.** binds

B5: Mouse TF peptide (SEQ ID NO:36, TRYPSPSPKPEGRF) (peptide)
peptide: TRYPSPSPKPEGRF
**Q.** Does B5 bind (mouse PD-L1 Fc)?
**A.** binds
